Laboratory results: US20130224224A1 (Boehringer Ingelheim, published 2013)
Like-named read-outs stand apart in the source and are kept apart here.

T1: human CX3CR1 (human, UniProt P49238 1-355)
T1 sequence: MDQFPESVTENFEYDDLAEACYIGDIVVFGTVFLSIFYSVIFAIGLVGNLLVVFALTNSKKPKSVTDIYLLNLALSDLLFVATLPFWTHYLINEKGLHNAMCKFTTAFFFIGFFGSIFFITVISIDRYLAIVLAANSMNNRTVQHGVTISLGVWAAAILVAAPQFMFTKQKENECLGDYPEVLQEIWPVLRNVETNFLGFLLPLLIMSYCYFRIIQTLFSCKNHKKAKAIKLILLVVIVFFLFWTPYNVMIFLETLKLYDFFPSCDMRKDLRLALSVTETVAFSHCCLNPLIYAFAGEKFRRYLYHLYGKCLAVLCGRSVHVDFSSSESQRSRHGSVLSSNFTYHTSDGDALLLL

T2: cynomolgus CX3CR1 (cynomolgus, UniProt P49238 1-355 (human entry))
T2 construct: transiently expressed on HEK293T cells; also called cyCX3CR1; cyno CX3CR1
T2 chain: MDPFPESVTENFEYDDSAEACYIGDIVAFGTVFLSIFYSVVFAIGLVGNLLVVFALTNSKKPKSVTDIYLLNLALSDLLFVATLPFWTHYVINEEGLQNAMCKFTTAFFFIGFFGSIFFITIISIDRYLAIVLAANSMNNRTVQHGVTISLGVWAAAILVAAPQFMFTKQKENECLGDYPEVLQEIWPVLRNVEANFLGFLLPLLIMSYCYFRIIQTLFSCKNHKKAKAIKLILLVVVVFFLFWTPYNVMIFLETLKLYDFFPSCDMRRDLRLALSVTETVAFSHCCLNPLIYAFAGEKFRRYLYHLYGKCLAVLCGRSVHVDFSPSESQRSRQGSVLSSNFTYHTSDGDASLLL


Assays:
[1] = target: T1, human CX3CR1; assay: cell-based or functional assay
[2] = target: T2, cynomolgus CX3CR1; assay: FACS binding, cynomolgus against human CX3CR1
Experimental: (§1) Initially, a FACS based binding setup was used to evaluate the cynomolgus cross reactivity. For this, the VHHs were incubated with the respective cells for 30 minutes at 4° C. followed by three wash steps and subsequently incubated with the detection reagents. As detection, a mouse anti-cmyc antibody (Serotec, MCA2200) followed by a goat anti-mouse antibody coupled to PE (Jackson 115-116-071) was used, each incubation for 30 minutes at 4° C., followed by three wash steps.

[3] = target: T1, human CX3CR1; assay: A647-fractalkine competition FACS, CHO-huCX3CR1
Description: (§2) Periplasmic extracts were screened in a human CX3CR1/human Fractalkine FACS competition assay to assess the blocking capacity of the expressed VHHs. Human CX3CR1 was presented on CHO cells overexpressing CX3CR1. Both a setup using cells harvested from an actively growing culture and a setup using frozen cells was used. As a detection reagent labeled fractalkine was used (R&D Systems, Minneapolis, Minn., USA) labeled with alexa647 (A647-Fractalkine) at a degree of labeling of 1. To setup the assay, first a titration series of the labeled fractalkine was performed on the CHO-huCX3CR1 cells in order to determine the EC50 value for binding. Initially screening was performed at a higher concentration of fractalkine (3 nM) to increase the assay robustness. To increase the sensitivity of the screening to a maximum, the EC30 concentration (1 nM) was chosen for subsequent screening. In brief 50 μl of periplasmic extract was added to 6 nM labeled fractalkine (50 μ;) and 200 000 CHO-huCX3CR1 cells. After one hour incubation at 4 C, cells were washed three times before read out was performed on a FACS Array (Becton Dickinson). First a gate was set on the intact cells as determined from the scatter profile. Next, dead cells were gated out by their fluorescence profile from the PI stain (Sigma, St Louis, US). The fluorescence profile from the alexa647 label was determined for each sample and used for calculation of blocking capacity. As controls, conditions were taken along where there was no VHH present in the peri extract or a known irrelevant VHH and samples were included where excess cold fractalkine was included. For each sample the percentage block was determined using the control samples to determine the assay window.
(§3) The blocking capacity towards the ligand fractalkine of the VHHs was evaluated in a human CX3CR1 competition FACS as outlined in Example 4. Either CHO-huCX3CR1 cells, BA/F3-huCX3CR1 cells or transiently transfected HEK293T cells were used. The amount of labeled ligand used in the different competition setups was also varied. The IC₅₀ values for VHHs blocking the interaction of human fractalkine to human CX3CR1 are depicted in Table 19.

[4] = target: T1, human CX3CR1; assay: A647-fractalkine competition FACS, BA/F3-huCX3CR1
Description: as §2, §3

[5] = target: T1, human CX3CR1; assay: A647-fractalkine competition FACS, HEK293-huCX3CR1
Description: as §2, §3

[6] = target: T1, human CX3CR1; assay: A647-fractalkine competition FACS, HEK293T human CX3CR1
Description: as §2
(§4) For later identified VHHs, a human Fractalkine competition FACS was set up using human or cynomolgus CX3CR1 expressed in HEK293T cells. Both the human and the cynomolgus receptor was transiently transfected in HEK293T cells and transfections were matched by the binding of the labeled ligand, human fractalkine. The competition was evaluated using the EC30 concentration of fractalkine and as such obtained IC50 values are a good estimate of the Ki value, a measure for affinity (Table 22). The experiment was performed as described in Example 4.

[7] = target: T1, human CX3CR1; assay: FACS binding on human CX3CR1 cells, anti-c-myc detection
Experimental: as §1

[8] = target: T2, cynomolgus CX3CR1; assay: A647-fractalkine competition FACS, HEK293T cynomolgus CX3CR1
Description: as §2, §4

[9] = target: T2, cynomolgus CX3CR1; assay: FACS binding on cynomolgus CX3CR1 cells, anti-c-myc detection
Experimental: as §1

[10] = target: T2, cynomolgus CX3CR1; assay: A647-fractalkine competition FACS, cynomolgus against human CX3CR1
Description: as §2, §4

[11] = target: T1, human CX3CR1; assay: periplasmic extract, A647-fractalkine competition FACS, CHO-huCX3CR1
In short: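 Periplasmic VHH extracts competed with Alexa647-fractalkine (EC30, 1 nM; 3 nM initially) for binding to live or frozen CHO cells overexpressing human CX3CR1, 1 h at 4 C. FACS read on intact, PI-negative cells; percent block derived using no-VHH, irrelevant-VHH and excess cold fractalkine controls.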

[12] = target: T1, human CX3CR1; assay: cell-based or functional assay; remark: listed apart in the source
[13] = target: T1, human CX3CR1; assay: A647-fractalkine competition FACS, HEK293-huCX3CR1; remark: listed apart in the source
[14] = target: T1, human CX3CR1; assay: A647-fractalkine competition FACS, HEK293T human CX3CR1; remark: listed apart in the source
Experimental: as §4, with “4. The ratio of the IC50 values on cynomolgus monkey and human CX3CR1 was used to evaluate potential differences in affinity for CX3CR1 in both species.” for “4.”
(§5) Also for the bivalent constructs the cross reactivity towards cynomolgus CX3CR1 was evaluated and compared with the human reactivity. As described earlier, either a binding setup (Table 27) or a ligand competition setup (Table 28) were applied using transient transfected HEK293T cells. Batches of transient transfected cells were matched by their receptor expression level.

[15] = target: T2, cynomolgus CX3CR1; assay: A647-fractalkine competition FACS, HEK293T cynomolgus CX3CR1
Experimental: as §4, with “4. The ratio of the IC50 values on cynomolgus monkey and human CX3CR1 was used to evaluate potential differences in affinity for CX3CR1 in both species.” for “4.”
as §5

[16] = target: T2, cynomolgus CX3CR1; assay: A647-fractalkine competition FACS, cynomolgus against human CX3CR1
Experimental: as §4, with “4. The ratio of the IC50 values on cynomolgus monkey and human CX3CR1 was used to evaluate potential differences in affinity for CX3CR1 in both species.” for “4.”
as §5

% block, fractalkine induced chemotaxis [1] [%] | IC50, fractalkine induced chemotaxis [1] [nM] | ratio (cynomolgus/human EC50) [2] | % block [3] [%] | IC50 [3] [nM] | % block [4] [%] | IC50 [4] [nM] | % block [5] [%] | IC50 [5] [nM] | % block [6] [%] | IC50 [6] [nM] | % block, fractalkine induced chemotaxis [12] [%] | IC50, fractalkine induced chemotaxis [12] [nM] | % block [13] [%] | IC50 [13] [nM] | % block [14] [%] | IC50 [14] [nM] | % block [15] [%] | IC50 [15] [nM] | ratio (cynomolgus/human IC50) [16] | Binder | further results
81 | 70 | 59.6 | 102 | 2.7 | 99 | 5.5 | 94 | 5.3 | 94 | 5.3 |  |  |  |  |  |  |  |  |  | CX3CR1BIIPMP54D5 (VHH, also called 54D05; CX3CR1BII54D5; not shown: C-terminal c-myc and His6 tags) VHH: EVQLVESGGGSVQAGESLRLSCAASGSIFSSNAMAWYRQAPPGKQRDLVALINSVGITKYADSVKGRFTISSDNAKNTVYLEMNSLKPEDTAVYYCTSDGRRGWDTRYWGQGTQVTVSS | EC50 [7]: 0.84 nM; % block [8]: 91%; IC50 [8]: 64 nM; EC50 [9]: 50 nM; ratio (cynomolgus/human IC50) [10]: 12.2; % block [11]: 87.8%
 |  |  |  |  |  |  |  |  |  |  | 89 | 3 | 99 | 0.31 | 99 | 0.31 | 95 | 1.6 | 5.34 | CX3CR1BII017 (VHH, expressed in E. coli as described for the monovalent VHHs) EVQLVESGGGSVQAGESLRLSCAASGSIFSSNAMAWYRQAPPGKQRDLVALINSVGITKYADSVKGRFTISSDNAKNTVYLEMNSLKPEDTAVYYCTSDGRRGWDTRYWGQGTQVTVSSGGGGSGGGGSGGGGSGGGGSGGGGSGGGGSGGGGSEVQLVESGGGSVQAGESLRLSCAASGSIFSSNAMAWYRQAPPGKQRDLVALINSVGITKYADSVKGRFTISSDNAKNTVYLEMNSLKPEDTAVYYCTSDGRRGWDTRYWGQGTQVTVSS | 

More lines, now with the values behind:

Binder | % block, fractalkine induced chemotaxis [1] [%] | IC50, fractalkine induced chemotaxis [1] [nM] | ratio (cynomolgus/human EC50) [2] | % block [3] [%] | IC50 [3] [nM] | % block [4] [%] | IC50 [4] [nM] | % block [5] [%] | IC50 [5] [nM] | % block [6] [%] | IC50 [6] [nM] | % block, fractalkine induced chemotaxis [12] [%] | IC50, fractalkine induced chemotaxis [12] [nM] | % block [13] [%] | IC50 [13] [nM] | % block [14] [%] | IC50 [14] [nM] | % block [15] [%] | IC50 [15] [nM] | ratio (cynomolgus/human IC50) [16] | further results
CX3CR1BIIPMP54A7 (VHH, also called 54A07; not shown: C-terminal c-myc and His6 tags) VHH: EVQLVESGGGSVQAGESLRLSCAASGTIFSSNAMAWYRQAPGKQRDLVAGINSVDITKYADSVKGRFTISRDNAKNTVYLQMNSLKPEDTAVYYCTSDPRRGWNTRYWGQGTQVTVSS | 45 | 50 | 0.1 | 78 | 11 | 81 | 15 | 52 | 23 | 52 | 23 |  |  |  |  |  |  |  |  |  | EC50 [7]: 540 nM; % block [8]: 69%; IC50 [8]: 280 nM; EC50 [9]: 30 nM; ratio (cynomolgus/human IC50) [10]: 12.3; % block [11]: 68.9%
CX3CR1BII019 (VHH, expressed in E. coli as described for the monovalent VHHs) EMQLVESGGGSVQAGESLRLSCAASGSIFSSNAMAWYRQAPGKQRDLVALINSVGITKYADSVKGRFTISRDNAKNTVYLQMNSLKPEDTAVYYCTSDGRRGWDTRYWGQGTQVTVSSGGGGSGGGGSGGGGSGGGGSGGGGSGGGGSGGGGSEMQLVESGGGSVQAGESLRLSCAASGSIFSSNAMAWYRQAPGKQRDLVALINSVGITKYADSVKGRFTISRDNAKNTVYLQMNSLKPEDTAVYYCTSDGRRGWDTRYWGQGTQVTVSS |  |  |  |  |  |  |  |  |  |  |  | 85 | 2 | 100 | 0.29 | 100 | 0.29 | 96 | 0.82 | 2.86 | 
CX3CR1BII020 (VHH, expressed in E. coli as described for the monovalent VHHs) EVQLVESGGGSVQAGESLRLSCAASGSIFSSNAMAWYRQAPGKQRDLVAGINSVGITKYADSVKGRFTISRDNAKNTAYLQMNSLKPEDTAVYYCTSDPRRGWDTRYWGQGTLVTVSSGGGGSGGGGSGGGGSGGGGSGGGGSGGGGSGGGGSEVQLVESGGGSVQAGESLRLSCAASGSIFSSNAMAWYRQAPGKQRDLVAGINSVGITKYADSVKGRFTISRDNAKNTAYLQMNSLKPEDTAVYYCTSDPRRGWDTRYWGQGTLVTVSS |  |  |  |  |  |  |  |  |  |  |  | 85 | 2 | 102 | 0.22 | 102 | 0.22 | 97 | 0.32 | 1.47 | 
